Reference: the supplement of paper PMC12042874
± gives the uncertainty stated by the source.

experiment: amyloid nucleation score (Sup35N fusion, yeast selection) (log enrichment); library NNK2; higher = more nucleation; inactive = no reads after selection
How it was run: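 Libraries of peptides of 20 random codons fused to Sup35N were expressed in psi-negative yeast and induced 24 hours with 100 μM copper sulfate. Selection was 7 days at 30°C on medium lacking adenine and uracil, and plasmid inserts were Illumina-sequenced before and after selection. Nucleation score is the DiMSum log enrichment of output over input reads, centred on the mode score of non-aggregating sequences, and sequences with under 100 input reads were left out.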

Substance	amyloid nucleation score
NSKTDSVHYYIDVLSPTHIF	-1.09 ± 0.78
NSLGRYSFRFVRCEGVWKTR	-0.88 ± 0.76
NSLVLFFSVGVLRL	1.37 ± 0.21
NSMTQFCIQCGGTTIAWSMF	6.663 ± 0.039
NSRGN	-0.293 ± 0.56
NSRLRRVYAGSARGAWTYRR	1.14 ± 0.38
NSRYPDRGILKLVV	0.409 ± 0.65
NSSMTRLGNTYLYHNNLHLV	-1.25 ± 0.76
NSSWSAPSLCLCM	9.527 ± 0.045
NSVFKGFLNRFRF	2.32 ± 0.19
NSVRSV	inactive
NSWWTVLFRFYKALSLPRAR	-0.839 ± 0.78
NTCMLRARVSVMQNEE	0.071 ± 0.35
NTIQCY	inactive
NTITIMHSDEYVMRVSYICQ	1.87 ± 0.2
NTLYSFVRGCKPRMEFNRVK	-0.965 ± 1
NTMELLFIGVWIAFWLN	inactive
NTTSARSERR	-0.212 ± 0.37
NVAMSCPRGRVPR	1.35 ± 0.38
NVCRVDMAEKFGSFRLCN	-0.846 ± 0.34
NVFMRYTKFYMCLELGNCWG	-0.331 ± 0.5
NVLDVGVGRTFVFK	-0.291 ± 0.79

Substance	amyloid nucleation score
NVLLNQNIMVLPGPLYFSIT	6.129 ± 0.054
NVMFF	1.28 ± 0.13
NVPCGYEWSFNLCIMGEASS	6.842 ± 0.049
NVPKSSINEWSLPDLLVLNV	0.923 ± 0.81
NVRSWYLDNLFLTFAVA	0.164 ± 0.63
NVSRGTKIDNMDRVYFYPEA	-0.055 ± 0.46
NVVQMMSVEFMPMVHVSAIL	4.23 ± 0.063
NVWVSDFVGERAGDLHLSLY	0.025 ± 1.1
NVYDRGVIGYMSNNVHTEGI	-1.07 ± 1.1
NVYVESSWVLARVIWRFYFD	-0.722 ± 0.62
NWGAWLNWFNLVIYGCRVIN	6.03 ± 0.079
NWGFISVLVALPWVWGLRPG	-0.387 ± 0.42
NWGMLLGCGGW	0.201 ± 0.8
NWHGSIFFIW	5.708 ± 0.049
NWLQFF	0.966 ± 0.13
NWMCMRCGVFVVLAVCLFWS	3.42 ± 0.075
NWSVTGCQLRGGRTEGNGIR	0.122 ± 0.5
NWWRD	-0.071 ± 0.43
NYDGVVVEDNVVGTRTSVAG	-0.007 ± 0.36
NYDRTIW	-1.01 ± 0.48
NYEGGCGVNGVMSVPAVRNP	0.082 ± 1
NYEGNGRVVITLLLGSNWYR	4.04 ± 0.086

Substance	amyloid nucleation score
NYFCIRS	4.11 ± 0.052
NYGVFTSIHVCYDVINVVRV	-0.661 ± 1.1
NYIESFMHSQGCNPFQDSFM	3 ± 0.12
NYIWVLGYSEVGNTIMYTYH	6.224 ± 0.05
NYMYGLNSVKSVGWLSDI	0.069 ± 0.46
NYRFVCWDYISWVMVWTSI	inactive
NYSNFTIKYLNLKRTLLDL	-1.74 ± 0.64
NYVNICFNLKFQVRHST	4.41 ± 0.089
PADPNCIFVIS	-1.25 ± 0.44
PAIYILLWAYSRSSACWLTA	inactive
PCCVKSELGLPQWWSVYL	5.645 ± 0.056
PCFRWSRGRKSCECCHVGYM	0.122 ± 0.25
PCGSCMSQNKSIG	0.167 ± 0.31
PCITLAFPVNKSRF	-0.363 ± 1.1
PCRFTYRRWTG	-0.496 ± 0.41
PCSGSLPRTKTD	-0.167 ± 0.32
PCVPGDYTVAKVAFSTY	-0.011 ± 1.1
PCWCSVLVL	1.51 ± 0.41
PDDCGWVLMFENQFAAAGTP	0.122 ± 0.28
PEGISNGLK	-1.44 ± 0.55
PEQAVFTNNKYIYEVWLTTK	inactive
PFHPICVYKRPFLCPE	inactive

Substance	amyloid nucleation score
PFLAFRGVWNFGL	5.1 ± 0.068
PFQSNNSEVDGSYYMSVRC	-0.705 ± 0.39
PFTMSVFKSYKIAQRSSWAW	2.5 ± 0.089
PFWVGNGKQGVFGKFDCYVI	-1.19 ± 0.34
PFYTYSKYKCTKFTDNYYAQ	-1.02 ± 1.1
PGAADRTVRYGSRRPPD	-0.003 ± 0.41
PGILRTFVETEYCITI	inactive
PGRRDSHVRAYQEGVVESVS	0.051 ± 0.49
PGSAIRVVSMRLWGRRRSAG	0.458 ± 0.45
PGSMPRRMSRCWSIGLDGEE	1.3 ± 0.32
PGSNL	-0.037 ± 0.42
PHNYLYSFFRRIYYRIGCLN	-0.461 ± 0.3
PHQKSAY	-0.284 ± 0.79
PHRKV	-0.536 ± 0.76
PHSRNRFLMFA	-0.488 ± 1
PIFYSPLAFMLRMYHNG	-0.998 ± 0.38
PIKCDRSFWRR	1.49 ± 0.22
PIMCKGNLTDFTFYCFCKFD	6.6 ± 0.067
PKFTMVPNNGMQVGIARNKW	0.43 ± 0.29
PKRFVLGY	-1.55 ± 0.62
PLFTINRVVMPNINVETFAG	-0.522 ± 0.39
